Source: PMC10939073, “The major inducible small heat shock protein HSP20-3 in the tardigrade Ramazzottius varieornatus forms filament-like structures and is an active chaperone” (Cell Stress & Chaperones, 2023)

B1: Ramazzottius varieornatus small heat shock protein HSP20-6 (natural protein, UniProt A0A1D1VFU2 1-195, looked up)
chain: MSRNLARLLPQITNMLDTPFRRAVTPFNRYRWPASSLGFFDREFERMSNMMDRMHNDLWHSSSLLENPQGSQRGKMNQDLFNIVEENGKKKMRIIFEAERCKPEDIEIKAKGNHLEIKARTEEKGEHFQSIQEYSQYLTLPEGVKAEELTCQFEGGMVTLEAPYTPPAIEAPKDIPVQKEPAEPPVKHNIPIKHE
notes: a stop codon precedes the vector's C-terminal hexa-histidine tag, so the protein is untagged; pET23b construct; also called RvY_08665; source: E. coli BL21 (pLysS), purified (Q-Sepharose ion exchange, Superose 6 size exclusion)
B2: human CRYAB (HSPB5) (natural protein, UniProt P02511 1-175, looked up)
chain: MDIAIHHPWIRRPFFPFHSPSRLFDQFFGEHLLESDLFPTSTSLSPFYLRPPSFLRAPSWFDTGLSEMRLEKDRFSVNLDVKHFSPEELKVKVLGDVIEVHGKHEERQDEHGFISREFHRKYRIPADVDPLTITSSLSSDGVLTVNGPRKQVSGPERTIPITREEKPAVTAAPKK
notes: human alpha-B crystallin CRYAB (HSPB5), recombinant; also called recombinant human CRYAB; source: E. coli, purified (ion exchange and size exclusion chromatography; as described previously)
B3: Ramazzottius varieornatus small heat shock protein HSP20-3 (natural protein, UniProt A0A1D1UZ79 1-218, looked up)
chain: MSMQRYDDYNDYGNRQMRPHRGNYEMEPFFGGNLFGGIDHVMRSMTRDLARMEKHIFGSSDTPNIGSLINHNMAMVPNFIERDGQQLAQFQLDVRGFKPEDITIRTSENVMTVTARHEDKSDDHHAIREFRRMVTIPPGMQMEGMKSRLTPNGVLSIEAPFTPQANRQGDFYEIPIQHGSSSNRNSIQNSGQNSSQNTNQNTNQNTNQNTNQNTNQNK
notes: a stop codon precedes the vector's C-terminal hexa-histidine tag, so the protein is untagged; pET23b construct; also called full length HSP20–3; RvY_03967; source: E. coli BL21 (pLysS), purified (Q-Sepharose ion exchange, Superose 6 size exclusion)
B4: HSP20-3NCT, C-terminally truncated HSP20-3 (stop codon immediately after G191, repeated QNTN-motif removed) (domain or fragment, Ramazzottius varieornatus, UniProt A0A1D1UZ79 1-191, looked up)
chain: MSMQRYDDYNDYGNRQMRPHRGNYEMEPFFGGNLFGGIDHVMRSMTRDLARMEKHIFGSSDTPNIGSLINHNMAMVPNFIERDGQQLAQFQLDVRGFKPEDITIRTSENVMTVTARHEDKSDDHHAIREFRRMVTIPPGMQMEGMKSRLTPNGVLSIEAPFTPQANRQGDFYEIPIQHGSSSNRNSIQNSG
notes: untagged; same forward primer as HSP20-3; pET23b construct; also called CTD-truncated HSP20–3; source: E. coli BL21 (pLysS), purified (Q-Sepharose ion exchange, Superose 6 size exclusion)

Biological target: the molecule itself
Assay: SEC; Superose 6 10/300 column; eluted in 0.5 M NaH2PO4, 0.5 M Na2HPO4, 150 mM NaCl, 5 mM EDTA pH 8.0; calibrated with protein standards (670 kDa to 137 Da); self-association, oligomers

Binding result, binds:
B1
B2
B3
B4
